Results published in patent publication US20240279318A1 (NANJING LEGEND BIOTECH, published 2024).
Where a chain is given by its changes, count along the chain named. One block for each binder: values may come before it.

Assays:
[1] = molecular target: T1, AFP158/HLA-A*02:01 complex (human); assay: SPR, fold vs AS170036 VL1VH1
T1 construct: flowed as analyte in SPR
Procedure: (§1) The experiment was carried out as follows. The crude scFv protein were captured onto the sensorchip. Different concentrations (320, 160, 40 nM) of AFP158/HLA-A*02:01 complex flowed over the sensorchip surface, and were allowed to bind the antibody fragment for 100 s followed by injection of the running buffer to allow dissociation of the complex. On-rate (kd) and off-rate (kd) were calculated based on association and dissociation curve, and were used to estimate the equilibrium dissociation constant (KD).

[2] = molecular target: T1, AFP158/HLA-A*02:01 complex; assay: SPR, fold vs AS170036 VL1VH1; remark: listed apart in the source
Procedure: as §1
(§2) The crude scFv muteins were then subjected to SPR affinity measurement by the method mentioned above.

[3] = molecular target: T1, AFP158/HLA-A*02:01 complex; assay: SPR, fold vs AS170036 VL1VH1; remark: listed apart in the source
Procedure: as §1, §2

[4] = molecular target: T1, AFP158/HLA-A*02:01 complex; assay: SPR, crude scFv captured, pMHC analyte
Procedure: as §1

[5] = molecular target: T1, AFP158/HLA-A*02:01 complex; assay: SPR, crude scFv captured, pMHC analyte; remark: listed apart in the source
Procedure: as §1, §2

[6] = molecular target: T1, AFP158/HLA-A*02:01 complex; assay: SPR, crude scFv captured, pMHC analyte; remark: listed apart in the source
Procedure: as §1, §2

[7] = molecular target: T2, AFP158/HLA-A*02:01 complex (human); assay: SPR (BIAcore T200), crude scFv captured, complex flowed over
T2 construct: flowed over the chip as analyte; also called AFP158 peptide/HLA-A*02:01 complex
Procedure: as §1
The 84 muteins were then tested for their selectivity. The 12 recombinant AFP158 homologous peptides/HLA-A*02:01 complex were mixed in three groups (group 1: ZNF566 and ARNTL, group 2: CDC14A, PTP4A1, BRCA2 and RCL1, group 3: OR1I1, OR51B6, OR6C1, ATG9A, RP1 and NR2E1). The binding of the 84 antibodies to these complexes were then measured by method described above.

[8] = molecular target: BRCA2 peptide/HLA-A*02:01 complex (recombinant) (human); assay: SPR
[9] = molecular target: CDC14A peptide/HLA-A*02:01 complex (recombinant) (human); assay: SPR
[10] = molecular target: NR2E1 peptide/HLA-A*02:01 complex (recombinant) (human); assay: SPR
[11] = molecular target: OR1I1 peptide/HLA-A*02:01 complex (recombinant) (human); assay: SPR
[12] = molecular target: OR51B6 peptide/HLA-A*02:01 complex (recombinant) (human); assay: SPR
[13] = molecular target: PTP4A1 peptide/HLA-A*02:01 complex (recombinant) (human); assay: SPR
[14] = molecular target: RP1 peptide/HLA-A*02:01 complex (recombinant) (human, UniProt P16213 21-119 (Pongo pygmaeus entry)); assay: SPR
[15] = molecular target: RCL1 peptide/HLA-A*02:01 complex (recombinant) (human, UniProt P16213 21-119 (Pongo pygmaeus entry)); assay: SPR
[16] = molecular target: ZNF566 peptide/HLA-A*02:01 complex (recombinant) (human); assay: SPR
[17] = molecular target: T3, AFP158/HLA-A*02:01 complex (human); assay: SPR; vs AS170036 VL1VH1
T3 construct: biotinylated on the BSP by BirA for ELISA and panning; also called biotinylated AFP158/HLA-A*02:01 complex; Bio-AFP158

[18] = molecular target: ATG9A peptide/HLA-A*02:01 complex (recombinant) (human); assay: SPR
[19] = molecular target: T3, AFP158/HLA-A*02:01 complex; assay: SPR; vs AS170036 VL1VH1; remark: listed apart in the source
Procedure: as §1

[20] = molecular target: T3, AFP158/HLA-A*02:01 complex; assay: SPR, crude scFv captured;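 further: Peptide–MHC complex flowed at several concentrations over sensorchip-captured scFv, Kd derived from on- and off-rates obtained from the association and dissociation curves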
Procedure: as §1

[21] = molecular target: T3, AFP158/HLA-A*02:01 complex; assay: SPR, antibody captured via mIgG2a-Fc, complex as analyte
Procedure: The binding affinity between selected antibodies and AFP158/HLA-A*02:01 complex was determined by surface plasmon resonance (SPR) on a BIAcore T200 instrument (GE Healthcare). The experiment was carried out as follows. The purified sdAb/scFv-mIgG2aFc protein were captured through mIgG2a-Fc onto the sensorchip. […] On-rate (kₐ) and off-rate (kd) were calculated based on association and dissociation curve, and were used to estimate the equilibrium dissociation constant (KD).

B1: AS170036 VL1VH1 (scFv)
scFv: QSALTQPRSVSGSPGQSVTISCAGTSSDVGSENYVSWYQQHPGKAPKLMIYQVNKRASGVPDRFSGSKSGNTASLTISGLQAEDEADYYCASYRSSDHNIVFGGGTKLTVLGGGGSGGGGSGGGGSEVQLVESGGGLVQPGGSLRLSCAASGFTFSSYAMSWVRQAPGKGLEWVSTINSGTGSPYYADSVKGRFTISRDNSKNTLYLQMNSLRAEDTAVYYCAKNFFDGSWFLGPPAMDYWGQGTLVTVSSHHHHHH
notes: Crude scFv from E. coli TG1 supernatant; also called AS170036 VL1VH1 scFv
- Affinity increase [1]: 1 fold
- Affinity increase [2]: 1 fold
- Affinity increase [3]: 1 fold
- Kd [4]: 270 nM
- koff [4]: 0.1 s⁻¹
- kon [4]: 380000 M⁻¹ s⁻¹
- Kd [5]: 230 nM
- koff [5]: 0.11 s⁻¹
- kon [5]: 490000 M⁻¹ s⁻¹
- Kd [6]: 230 nM
- koff [6]: 0.11 s⁻¹
- kon [6]: 490000 M⁻¹ s⁻¹

B2: AS170036 VL1VH1 (scFv)
scFv: B1 scFv
notes: Crude scFv from E. coli TG1 supernatant, captured on the chip; also called AS170036 VL1VH1 scFv
- SPR binding level [7]: 196 RU

B3: 27-AS170036 VL1VH1-57K108S (scFv)
scFv: B1 scFv with S183K, G234S
notes: Crude scFv mutein of AS170036 VL1VH1
- SPR binding level [7]: 627 RU

B4: AS170036 VL1VH1-VLH98I (scFv)
scFv: B1 scFv with H98I
- binding result [8]: no binding (tested: all below 3.5 RU)
- binding result [9]: no binding (tested: all below 3.5 RU)
- binding result [10]: no binding (tested: all below 3.5 RU)
- binding result [11]: no binding (tested: all below 3.5 RU)
- binding result [12]: no binding (tested: all below 3.5 RU)
- binding result [13]: no binding (tested: all below 3.5 RU)
- binding result [14]: no binding (tested: all below 3.5 RU)
- binding result [15]: no binding (tested: all below 3.5 RU)
- binding result [16]: no binding (tested: all below 3.5 RU)
- Affinity increase [17]: > 2 fold

B5: AS170036 VL1VH1-VLH98F (scFv)
scFv: B1 scFv with H98F
- binding result [8]: no binding (tested: all below 3.5 RU)
- binding result [9]: no binding (tested: all below 3.5 RU)
- binding result [10]: no binding (tested: all below 3.5 RU)
- binding result [11]: no binding (tested: all below 3.5 RU)
- binding result [12]: no binding (tested: all below 3.5 RU)
- binding result [13]: no binding (tested: all below 3.5 RU)
- binding result [14]: no binding (tested: all below 3.5 RU)
- binding result [15]: no binding (tested: all below 3.5 RU)
- binding result [16]: no binding (tested: all below 3.5 RU)
- Affinity increase [17]: > 2 fold

B7: 16-AS170036 VL1VH1-56Y108A (scFv)
scFv: B1 scFv with G182Y, G234A
notes: as for B3
- SPR binding level [7]: 601 RU

B8: 05-AS170036 VL1VH1-56N98I (scFv)
scFv: B1 scFv with H98I, G182N
notes: as for B3
- SPR binding level [7]: 564 RU

B9: 19-AS170036 VL1VH1-56N108A (scFv)
scFv: B1 scFv with G182N, G234A
notes: as for B3
- SPR binding level [7]: 526 RU

B10: 45-AS170036 VL1VH1-56Y98I108S (scFv)
scFv: B1 scFv with H98I, G182Y, G234S
notes: as for B3
- SPR binding level [7]: 689 RU

B11: AS170036 VL1VH1-VHG108A (scFv)
scFv: B1 scFv with G234A
- binding result [18]: no binding (tested: all below 3.5 RU)
- binding result [8]: no binding (tested: all below 3.5 RU)
- binding result [9]: no binding (tested: all below 3.5 RU)
- binding result [10]: no binding (tested: all below 3.5 RU)
- binding result [11]: no binding (tested: all below 3.5 RU)
- binding result [13]: no binding (tested: all below 3.5 RU)
- binding result [14]: no binding (tested: all below 3.5 RU)
- binding result [15]: no binding (tested: all below 3.5 RU)
- binding result [16]: no binding (tested: all below 3.5 RU)
- Affinity increase [17]: > 2 fold
- Affinity increase [19]: 5.5 fold
- Kd [20]: 42 nM

B15: 25-AS170036 VL1VH1-57K108A (scFv)
scFv: B1 scFv with S183K, G234A
notes: as for B3
- SPR binding level [7]: 554 RU

B16: 40-AS170036 VL1VH1-56Y98F108A (scFv)
scFv: B1 scFv with H98F, G182Y, G234A
notes: as for B3
- SPR binding level [7]: 587 RU

B17: 15-AS170036 VL1VH1-57M98Q (scFv)
scFv: B1 scFv with H98Q, S183M
notes: as for B3
- SPR binding level [7]: 554 RU

B19: 49-AS170036 VL1VH1-56N98F108A (scFv)
scFv: B1 scFv with H98F, G182N, G234A
notes: as for B3
- SPR binding level [7]: 604 RU

B20: 34-AS170036 VL1VH1-98I108A (scFv)
scFv: B1 scFv with H98I, G234A
notes: as for B3
- SPR binding level [7]: 559 RU

B23: 67-AS170036 VL1VH1-57K98F108A (scFv)
scFv: B1 scFv with H98F, S183K, G234A
notes: as for B3
- SPR binding level [7]: 686 RU

B24: 22-AS170036 VL1VH1-57H108A (scFv)
scFv: B1 scFv with S183H, G234A
notes: as for B3
- SPR binding level [7]: 571 RU

B26: 42-AS170036 VL1VH1-56Y98F108S (scFv)
scFv: B1 scFv with H98F, G182Y, G234S
notes: as for B3
- SPR binding level [7]: 682 RU

Second part, the binder after the results:

- SPR binding level [7]: 817 RU
B6: 48-AS170036 VL1VH1-56Y98Q108S (scFv)
scFv: B1 scFv with H98Q, G182Y, G234S
notes: as for B3

- binding result [8]: no binding (tested: all below 3.5 RU)
- binding result [9]: no binding (tested: all below 3.5 RU)
- binding result [10]: no binding (tested: all below 3.5 RU)
- binding result [11]: no binding (tested: all below 3.5 RU)
- binding result [12]: no binding (tested: all below 3.5 RU)
- binding result [14]: no binding (tested: all below 3.5 RU)
- binding result [15]: no binding (tested: all below 3.5 RU)
- binding result [16]: no binding (tested: all below 3.5 RU)
- Affinity increase [17]: > 2 fold
B12: AS170036 VL1VH1-VLH98Q (scFv)
scFv: B1 scFv with H98Q

- SPR binding level [7]: 664 RU
B13: 43-AS170036 VL1VH1-56Y98I108A (scFv)
scFv: B1 scFv with H98I, G182Y, G234A
notes: as for B3

- SPR binding level [7]: 738 RU
B14: 03-AS170036 VL1VH1-56Y98Q (scFv)
scFv: B1 scFv with H98Q, G182Y
notes: as for B3

- SPR binding level [7]: 819 RU
B18: 75-AS170036 VL1VH1-57K98Q108S (scFv)
scFv: B1 scFv with H98Q, S183K, G234S
notes: as for B3

- SPR binding level [7]: 807 RU
B21: 70-AS170036 VL1VH1-57K98I108A (scFv)
scFv: B1 scFv with H98I, S183K, G234A
notes: as for B3

- SPR binding level [7]: 614 RU
B22: 10-AS170036 VL1VH1-57K98F (scFv)
scFv: B1 scFv with H98F, S183K
notes: as for B3

- SPR binding level [7]: 662 RU
B25: 82-AS170036 VL1VH1-57M98Q108A (scFv)
scFv: B1 scFv with H98Q, S183M, G234A
notes: as for B3

- Kd [21]: 95 nM
- koff [21]: 0.039 s⁻¹
- kon [21]: 410000 M⁻¹ s⁻¹
B27: AS167821 sdAb-mIgG2aFc (Fc fusion, not shown: a dimerising Fc or GST)
chain: QVRLVESGGGSVQAGGSLRLSCAASGRTYSTYCMGWFRQAPGKEREGVATIYIGSGRTYYVDSVKGRFTISQDNAKNTLYLQMNNLKPEDTAMYYCTADVDPYESSWSRGLGYWGQGTQVTVSS
notes: i647-labelled for flow cytometry
